Experimental data: the DeepSol protein solubility set

Assay: soluble on expression in E. coli; label from the status in PepcDB or PDB records

Sequence | soluble on expression in E. coli
MSLFDPNDYKDEIRQIARDKANLELDLKGDIGWSLFPWLGLELHDTSIASAATPTKPFADLQMLGLSVRVLPLLRKDVQMSAIRVEGLSLDLVRDKQGKGNWENIGKPAQPQAPAAPSETPPAADGKGAQAQAPEQAPQNDSPRTPIKLDIDSLNVNNARVTYTDEASGKQYNVEGIELSTGAIREGSSIPLKLNAYLGTNQPVVRVKTELTGNLRFDTALRRYQLEDARLSGEASGEPLQGKTATFSAQGQLLLDQSAQIAEWNGLKLSVNQLRALGELKARELDKDTKFSGGLSIAPMNLREFLAGIGVTLPAMADANTLGKFELNTRLAGSRNSLNLEDLKLGLDDTAFSGRFGIADFARQSLRAQLKGDKLDLDRYLPAKAKQAQDAASATRKAEVDATVASAAQGNTPLPEKPTRQAWSDAPLLPIATLRKLDLDVALNFGRLTVEKLPIDDASLKLRGQGGVISLDDMRGGLYNGRFNAKANLDVRQDSAVLTATKHIANVPVERLLEAQGKKPPVKGLLDLDADIRTSGNSEKSWIDHLNGNARFSLINGVLPDANLEQQLCQGIATLNRKALAGTHGGKDTPFRELKGSLNFTNGVASNPDLKVAIPGLAVSGHGDIDLRVLGMDYRIGVEIQGDKSDMPDPACQVNQRYAGIEWPLLCRGPLELGAKACRLDKEGMGKVAAKLAGNRLNEKLEEKLGDKVSPELKDALKGLFNRKEGHHHHHH | soluble
MDTSTNLDIGAQLIVEECPSTYSLTGMPDIKIEHPLDPNSEEGSAQGVAMGMKFILPNRFDMNVCSRFVKSLNEEDSKNIQDQVNSDLEVASVLFKAECNIHTSPSPGIQVRHVYTPSTTKHFSPIKQSTTLTNKHRGNEVSTTPLLANSLSVHQLAAQGEMLYLATRIEQENVINHTDEEGFTPLMWAAAHGQIAVVEFLLQNGADPQLLGKGRESALSLACSKGYTDIVKMLLDCGVDVNEYDWNGGTPLLYAVHGNHVKCVKMLLESGADPTIETDSGYNSMDLAVALGYRSVQQVIESHLLKLLQNIKE | soluble
MTKLVIDTVGPATSVQDAGRHGAQRYGLPPSGAMDRLSLAAANVLVGNSAFAAAIELGPLGAKLSVRDGAVRLALTGAERPAALDGQPLAFNESFTLAEGQILTLGVARGGVFSYLGIEGGVGGEPMFGSLAVNARAGLGSPYPRPLQAGDAIAVKSAAPSVERRLDLPEQQDTPIRVVLGPQDDEFGAAVEIFLTGEWTMSATSDRMGYRLDGPQISHLHGHNIVSDGTVDGSIQVPGSGQPIVLMPDRGTSGGYPKIATVISADLGRLAQRQPGRPFRFQAVSVEEAQDAYRTMAKLIRSLPDLLRDAQHAIIDLDALLSANVAGTAIDALAAELEHHHHHH | not soluble
MKIDITDYNHADEILNPQLWKEIEETLLKMPLHVKASDQASKVGSLIFDPVGTNQYIKDELVPKHWKNNIPIPKRFDFLGTDIDFGKRDTLVEVQFSNYPFLLNNTVRSELFHKSNMDIDEEGMKVAIIITKGHMFPASNSSLYYEQAQNQLNSLAEYNVFDVPIRLVGLIEDFETDIDIVSTTYADKRYSRTITKRDTVKGKVIDTNTPNTRRRKRGTIVTY | soluble
MNDPLDSLSNDEFEIIETFDPETEDREDQWSIQQSIRIEPISIQMPNTLQSQRAPSPVGSKAPESLKDEDPDRTPEASIVETPLLTETLKEDRTPMSTPLASLVNSSQSPEFTLQNMSIVSESECSNNSSLVNVADVESTEIALRTSLLLVSELKSQLQAAKMSESTLLKSNSNHEIEENKKLSEKMEVMKNEFELKMQESAASVEKVIQEKDSAIEQLKVQLAQSQQVAELWKQGAEKNSNAQYSDSKTTIDRLLEENSKLRNLVDEEVARRLEESERRKLAEDQLKHARGGSVFDPPASFVASQLAERTTYSLNLEHELITLRKELEETKEALKKSVEESSNKDEIVSALHEDQQESTRMLASNEQVINSLKQKCRQLGVLEDFSS | soluble
MGSDKIHHHHHHMANKNLYGGNPERGWCMVLPGFFSEDIRVDNHAANGRSSKSFISEGRWAKVISQVKKGDYVFIQFGHNDEKADSARHTDPGTTFDDNLRRFVNETRVKGGIPVLFNSIVRRNFVQPEDASIATDARRAPGEQELPKEVNVLYDTHGAYLDSPRNVAKEMGVAFIDMNKITHDLVQGLGPAESKKLFMFVEPEKVPAFPKGREDNTHLNVYGARTIAGLTVDAIAKEIPELAKYVRHYDYVVAQDGTGDFFTVQEAINAVPDFRKNVRTTILVRKGTYKEKIIIPESKINISLIGEDGVVLTNDDFANKKNVFGENMGTSGSSSCYIYAPDFYAENITFENSAGPVGQAVACFVSADRAFFKNCRFLGYQDTLYTYGKHSRQYYEDCYIEGTVDFIFGWSVAVFNRCHIHSKRDGYVTAPSTDQGKKYGYVFYDCRLTADPDVAKVYLSRPWRPYAQAVFIRCELGKHILPEGWHNWGKKEAEKTVFYAEYDSHGEGANPKARAAFSRQLKNLKGYEMETVLAGEDGWNPLKNDSVK | not soluble
MQVDDWIVGLEVEIFTFDGKEYRGIVYTYDADANCVVLARKSQDSLKSDLRILKASLVKNINVLGRSNVDQLPQQLSPLNLEALKMREEQALQKARKDLARTGVGVSQQAQEIFDALCKTLPCQWEEDSIVIFENIKLKKPYRVEDLEGSEIEAVNRVKVVLENELQKLQRRNT | soluble
MAHHHHHHMLAAIQGFGTRVAARTAGQALRRGLGVVPLRRCCPFRCASSASLPSDVEVHQGSDDYRHSDDAFTLSTEVLGTAEEKATLDEDEFDELEAASQELHDLCYALIAHLRCADPEANKALFERRVQRAFREPKPEQYRRLLHGHGDRSLRRRNNYRTRKDFQEAHRLYLQWCDKLLLLLTQPVLDRLVKSAGKGHRDLRTDGVHRYRRPLERATWRSFPHRWFKHAPFEVQQLRADIPESAVLNTRFYRDHATLRYLFTLMEPQHAFREKIERRVMDLTQRYDPLRKSIE | not soluble
MKSRFRFHLCCVCMLALAVAGCKVKRPDDVISESKMENLLYDYHLAKSMGDNLPYNENYKKTLYLDAVFKKYGTTEAVFDSSLVWYTRNTEVLSKIYEKVSKRLKAQQNEINHLIALRDNKPKMSEPGDSIDVWPWKCFIRLTGEMMNDQYAFVLPVDTNYKDRDTLVWEVRYRFLEPMLADSLRAVTMAMQVIYEKDTLNHLETITDPGVHQIRLYADTLGVMKEIKGFIYYPGVQGEKAGALLADRFALTRYHCSDSLSVAERDSINQLEALKTDSLKKVSDQKDTKISKDSLRKVDDLKDNQRISPEEMNRRRTVTPEKKPEQIEVEQHIQQEKIEQRRERQLNQRRNQQRRQSPSR | not soluble
MIVSAIAANALLESVTKFHCGVIYDYSTAEYVSYRPSDFGAYLDALEAEVARGGLIVFHNGHKYDVPALTKLAKLQLNREFHLPRENCIDTLVLSRLIHSNLKDTDMGLLRSGKLPGKRFGSHALEAWGYRLGEMKGEYKDDFKRMLEEQGEEYVDGMEWWNFNEEMMDYNVQDVVVTKALLEKLLSDKHYFPPEIDFTDVGYTTFWSESLEAVDIEHRAAWLLAKQERNGFPFDTKAIEELYVELAARRSELLRKLTETFGSWYQPKGGTEMFCHPRTGKPLPKYPRIKTPKVGGIFKKPKNKAQREGREPCELDTREYVAGAPYTPVEHVVFNPSSRDHIQKKLQEAGWVPTKYTDKGAPVVDDEVLEGVRVDDPEKQAAIDLIKEYLMIQKRIGQSAEGDKAWLRYVAEDGKIHGSVNPNGAVTGRATHAFPNLAQIPGVRSPYGEQCRAAFGAEHHLDGITGKPWVQAGIDASGLELRCLAHFMARFDNGEYAHEILNGDIHTKNQIAAELPTRDNAKTFIYGFLYGAGDEKIGQIVGAGKERGKELKKKFLENTPAIAALRESIQQTLVESSQWVAGEQQVKWKRRWIKGLDGRKVHVRSPHAALNTLLQSAGALICKLWIIKTEEMLVEKGLKHGWDGDFAYMAWVHDEIQVGCRTEEIAQVVIETAQEAMRWVGDHWNFRCLLDTEGKMGPNWAICH | soluble
MVEKIERKSLAEQVYDQIKAEITSGAWKIGERIPKEADLMTQFGISRNTLREAIRALAHIGLLETKQGDGTFVRNNSELHAIMQKRVRESSVQEILEMRHALDREAVILACERRTDEDLKMLKKYKQLCYLANKDNDVTAFVKADSALHLTIVKAAHNDLLLDMYVNILEEIQFSITSTTEMNPAVNKHNGHATLVSAIEKRDKEGAAHEVTEYITLFKQIAAKNGDNK | not soluble
MSELLTTYRPIKILLQLDPNLGNNSYNGRVKIDYEFTGETSEIKIQTSRDFQWTSVRLATFYDFNEGCPVYASVDCENYVHDAESEILTLPLGNPLTPETTENGFYIELEWTGPINPQGETTGLYAIDESTIEANMKDGNAHKVFPCYEGGVSAKFWLTVITDERTRVETNMDDAGHEEFEGRVKNNFLKEEELTIEDVYIYVTPIIDME | not soluble
MKTIFSGIQPSGVITIGNYIGALRQFVELQHEYNCYFCIVDQHAITVWQDPHELRQNIRRLAALYLAVGIDPTQATLFIQSEVPAHAQAAWMLQCIVYIGELERMTQFKEKSAGKEAVSAGLLTYPPLMAADILLYNTDIVPVGEDQKQHIELTRDLAERFNKRYGELFTIPEARIPKVGARIMSLVDPTKKMSKSDPNPKAYITLLDDAKTIEKKIKSAVTDSEGTIRYDKEAKPGISNLLNIYSTLSGQSIEELERQYEGKGYGVFKADLAQVVIETLRPIQERYHHWMESEELDRVLDEGAEKANRVASEMVRKMEQAMGLGRRR | soluble
MQYKDENGVNEPSRRRLLKVIGALALAGSCPVAHAQKTQSAPGTLSPDARNEKQPFYGEHQAGILTPQQAAMMLVAFDVLASDKADLERLFRLLTQRFAFLTQGGAAPETPNPRLPPLDSGILGGYIAPDNLTITLSVGHSLFDERFGLAPQMPKKLQKMTRFPNDSLDAALCHGDVLLQICANTQDTVIHALRDIIKHTPDLLSVRWKREGFISDHAARSKGKETPINLLGFKDGTANPDSQNDKLMQKVVWVTADQQEPAWTIGGSYQAVRLIQFRVEFWDRTPLKEQQTIFGRDKQTGAPLGMQHEHDVPDYASDPEGKVIALDSHIRLANPRTAESESSLMLRRGYSYSLGVTNSGQLDMGLLFVCYQHDLEKGFLTVQKRLNGEALEEYVKPIGGGYFFALPGVKDANDYFGSALLRV | soluble
MGSDKIHHHHHHMIGFEELNLQPGTRLQLMRHRGRTPVQYLSTFIGMERNEYLLLRLPKAQGTFLTFYDGEKVTVRVFSGVMISSFDASVIQTIHHPLNCLCISFPHAIQVKKIRREMRIKVDIEGRLGLQDRTILPVKLTNISATGCQILVDRDIGKVDGQVVLNFNIAQLHDDETSAMTLEAKVRNVVPAGLSGGASFLAGLEFVALESNVQLLVRHYVYECLVDRRQNLV | not soluble
MFKGSIPALITPFTDNGSVDEKAFAAHVEWQIAEGSNGLVPVGTTGESPTLSHDEHKRVVELCIEVAAKRVPVIAGAGSNNTDEAIELALHAQEAGADALLVVTPYYNKPTQKGLFAHFSAVAEAVKLPIVIYNIPPRSVVDMSPETMGALVKAHKNIIGVKDATGKLDRVSEQRISCGKDFVQLSGEDGTALGFNAHGGVGCISVTANVAPRLCSEFQAAMLAGDYAKALEYQDRLMPLHRAIFMEPGVCGTKYALSKTRGGNRRVRSPLMSTLEPATEAAIDAALKHAGLMN | not soluble
MTIKYLTKNDVLAACIGGSVYASGGGGFYEHGLEMGEAAVALSPVVLKTIDEFEEDDLIITQTAIGAPAGTTDWQMLGKDYIRAVELLLEKHPHPEKIKGILTPQNGKSSSTNGWLSASALGLAVVHATGDIRAHPTGKMGNMGVANDTTYETIQAVSGGRRETGRHIELSVQGTAAYTSKILRIASDLSGGFIAAARHPLTASYIKQNAVIGGLSKAIELGYCILEHQNEDGSSIIDAIVKHTHGEILAKGKVVAKDMTYTDEAFDVGKVKIKTESDNVTLHVQNEFMAVDSQALGRVATYPDVITLFRAKDAKALSTDEISIDEEVVVFKISHKHFPLSTGVKDPSVYPEVENVLGIDLYRHAFKLEHHHHHH | soluble
MFPLNDLSLKTQPVQLNKVTSNTESTIKQHELVSDDAIINELSSELVSCLGNGKFTPISEDSKLFNMLSEFKLLHSEYFEWGDYSLWFQDFSIYNKIGFIMIEKIRELVTHPFGINLEHHHHHH | not soluble
